Patent US20030104423A1 (WISCONSIN ALUMNI RESEARCH FOUNDATION, published 2003)

Experiments:
[1] = molecular target: T1, β′ 1-1407 Y269A with C-terminal His6 (pTA601) (Escherichia coli, UniProt P0A8T7 1-1407); experiment: Assembly Eσ32 holo: co-purification with His6-β′ from cells, Western blot; grade
T1 construct: range 1-1407

[2] = molecular target: T2, β′ 1-1407 R297S with C-terminal His6 (pTA606) (Escherichia coli, UniProt P0A8T7 1-1407); experiment: as above
T2 construct: range 1-1407

[3] = molecular target: T3, β′ 1-1407 R293Q with C-terminal His6 (pTA604) (Escherichia coli, UniProt P0A8T7 1-1407); experiment: as above
T3 construct: range 1-1407

[4] = molecular target: T4, β′ 1-1407 Q300E with C-terminal His6 (pTA607) (Escherichia coli, UniProt P0A8T7 1-1407); experiment: as above
T4 construct: range 1-1407

[5] = molecular target: T5, β′ 1-1407 N309D with C-terminal His6 (pTA609) (Escherichia coli, UniProt P0A8T7 1-1407); experiment: as above
T5 construct: range 1-1407

[6] = molecular target: T6, β′ 1-1407 K280E with C-terminal His6 (pTA603) (Escherichia coli, UniProt P0A8T7 1-1407); experiment: as above
T6 construct: range 1-1407

[7] = molecular target: T7, β′ 1-1407 N266D with C-terminal His6 (pTA600) (Escherichia coli, UniProt P0A8T7 1-1407); experiment: as above
T7 construct: range 1-1407

[8] = molecular target: T8, β′ 1-1407 R275Q with C-terminal His6 (pTA602) (Escherichia coli, UniProt P0A8T7 1-1407); experiment: as above
T8 construct: range 1-1407

[9] = molecular target: T9, β′ 1-1407 A302D with C-terminal His6 (pTA608) (Escherichia coli, UniProt P0A8T7 1-1407); experiment: as above
T9 construct: range 1-1407

[10] = molecular target: T10, β′ 1-1407 E295K with C-terminal His6 (pTA605) (Escherichia coli, UniProt P0A8T7 1-1407); experiment: as above
T10 construct: range 1-1407

[11] = molecular target: T11, β′ 1-1407 wild type with C-terminal His6 (pTA577) (Escherichia coli, UniProt P0A8T7 1-1407); experiment: as above
T11 construct: range 1-1407; also called wt; wild type β′

[12] = molecular target: T12, σ70, native, untagged (pLN12) (Escherichia coli, UniProt P00579 1-613); experiment: Ni-NTA co-immobilization, SDS-PAGE
T12 construct: range 1-613; also called native ?^70

Bovine serum albumin = molecular target: T13, Bovine serum albumin (bovine, UniProt P02769 25-607); experiment: Ni-NTA co-immobilization, SDS-PAGE
T13 construct: also called BSA
T13 sequence (P02769 25-607 limits assumed): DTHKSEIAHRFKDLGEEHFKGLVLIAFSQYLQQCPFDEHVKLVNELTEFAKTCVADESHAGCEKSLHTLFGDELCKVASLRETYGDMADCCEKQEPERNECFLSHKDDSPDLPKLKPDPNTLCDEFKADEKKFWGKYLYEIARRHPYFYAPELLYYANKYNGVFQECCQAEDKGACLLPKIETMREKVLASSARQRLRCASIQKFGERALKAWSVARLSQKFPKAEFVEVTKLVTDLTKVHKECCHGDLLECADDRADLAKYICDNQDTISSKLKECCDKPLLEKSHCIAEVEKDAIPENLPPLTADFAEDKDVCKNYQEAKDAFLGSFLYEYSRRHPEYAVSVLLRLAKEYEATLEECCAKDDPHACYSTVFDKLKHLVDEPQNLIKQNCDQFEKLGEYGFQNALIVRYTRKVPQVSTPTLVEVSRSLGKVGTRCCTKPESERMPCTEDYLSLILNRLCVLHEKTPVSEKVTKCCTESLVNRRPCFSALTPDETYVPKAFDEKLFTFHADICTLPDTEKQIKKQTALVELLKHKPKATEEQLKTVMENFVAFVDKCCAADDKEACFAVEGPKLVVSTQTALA

B1: σ32 of E. coli (the cell's own) (other)
chain: MTDKMQSLALAPVGNLDSYIRAANAWPMLSADEERALAEKLHYHGDLEAAKTLILSHLRFVVHIARNYAGYGLPQADLIQEGNIGLMKAVRRFNPEVGVRLVSFAVHWIKAEIHEYVLRNWRIVKVATTKAQRKLFFNLRKTKQRLGWFNQDEVEMVARELGVTSKDVREMESRMAAQDMTFDLSSDDDSDSQPMAPVLYLQDKSSNFADGIEDDNWEEQAANRLTDAMQGLDERSQDIIRARWLDEDNKSTLQELADRYGVSAERVRQLEKNAMKKLRAAIEA
notes: also called E?32
Does B1 bind [1]?
Result: binds

Does B1 bind [2]?
Result: binds

Does B1 bind [3]?
Result: binds

Does B1 bind [4]?
Result: binds

Does B1 bind [5]?
Result: binds

Does B1 bind [6]?
Result: binds

Does B1 bind [7]?
Result: no binding

Does B1 bind [8]?
Result: no binding

Does B1 bind [9]?
Result: no binding

Does B1 bind [10]?
Result: no binding

Does B1 bind [11]?
Result: binds

B2: His6-HMK-β′1-309 (pTA525) (enzyme)
chain: MKDLLKFLKAQTKTEEFDAIKIALASPDMIRSWSFGEVKKPETINYRTFKPERDGLFCARIFGPVKDYECLCGKYKRLKHRGVICEKCGVEVTQTKVRRERMGHIELASPTAHIWFLKSLPSRIGLLLDMPLRDIERVLYFESYVVIEGGMTNLERQQILTEEQYLDALEEFGDEFDAKMGAEAIQALLKSMDLEQECEQLREELNETNSETKRKKLTKRIKLLEAFVQSGNKPEWMILTVLPVLPPDLRPLVPLDGGRFATSDLNDLYRRVINRNNRLKRLLDLAAPDIIVRNEKRMLQEAVDALLDN
Does B2 bind [12]?
Result: binds

Does B2 bind (Bovine serum albumin)?
Result: no binding
